Measurements reported in US20250019435A1 (ALBERT EINSTEIN COLLEGE OF MEDICINE, published 2025).

T1: PVR expressed on transduced cells (PVR-YFP) (UniProt P15151 21-417)
T1 construct: whole, on cells; On NIH 3T3 or Raji cells; also called PVR/3T3; PVR-YFP/3T3; not shown: YFP ('PVR-YFP ... fusion protein')
T1 sequence (looked up): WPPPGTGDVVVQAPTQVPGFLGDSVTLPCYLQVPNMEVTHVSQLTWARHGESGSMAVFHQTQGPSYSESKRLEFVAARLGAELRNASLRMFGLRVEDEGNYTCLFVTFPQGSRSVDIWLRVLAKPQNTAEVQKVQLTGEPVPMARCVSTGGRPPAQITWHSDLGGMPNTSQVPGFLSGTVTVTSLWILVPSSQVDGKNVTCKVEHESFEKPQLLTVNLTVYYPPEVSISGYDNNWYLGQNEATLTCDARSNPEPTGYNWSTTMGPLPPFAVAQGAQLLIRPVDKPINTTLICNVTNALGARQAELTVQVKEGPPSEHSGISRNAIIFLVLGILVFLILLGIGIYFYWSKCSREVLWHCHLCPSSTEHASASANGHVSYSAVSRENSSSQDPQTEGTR

T2: SHP-2 (human, UniProt Q06124 2-593)
T2 sequence (looked up): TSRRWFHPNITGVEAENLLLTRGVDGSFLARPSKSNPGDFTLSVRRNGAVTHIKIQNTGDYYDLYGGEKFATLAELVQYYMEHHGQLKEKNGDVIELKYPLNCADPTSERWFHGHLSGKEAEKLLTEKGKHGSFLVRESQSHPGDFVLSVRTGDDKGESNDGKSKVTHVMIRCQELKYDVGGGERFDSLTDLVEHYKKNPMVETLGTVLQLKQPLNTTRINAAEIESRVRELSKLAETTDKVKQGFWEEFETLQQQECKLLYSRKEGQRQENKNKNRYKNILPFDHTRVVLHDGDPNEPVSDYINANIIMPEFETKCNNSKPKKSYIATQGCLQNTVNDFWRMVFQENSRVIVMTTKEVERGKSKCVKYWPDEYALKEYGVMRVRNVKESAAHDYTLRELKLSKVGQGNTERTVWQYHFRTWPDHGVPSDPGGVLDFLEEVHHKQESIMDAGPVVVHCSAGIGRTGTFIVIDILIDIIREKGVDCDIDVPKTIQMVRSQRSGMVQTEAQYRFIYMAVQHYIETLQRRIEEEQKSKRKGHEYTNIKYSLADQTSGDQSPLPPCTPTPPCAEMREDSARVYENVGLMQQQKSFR


Columns and labels:
[1] = target: T1, PVR expressed on transduced cells …; assay: flow cytometry, PVR/3T3 cells preincubated with DNAM-1-His, then KIR2DL5-Ig
SHP-2 = target: T2, SHP-2; assay: co-immunoprecipitation with anti-KIR2DL5 from transduced primary NK cells with or without pervanadate, immunoblot
Protocol: (§1) FIG. 12A-12E: KIR2DL5 ITIM and ITSM mediated NK cell inhibition and suppressed downstream signaling. (A) Tyrosine (Y) in ITIM and ITSM of KIR2DL5 was mutated to phenylalanine (F). The KIR2DL5⁻ primary NK cells were transduced with WT KIR2DL5 or the indicated mutants, and then examined for protein expression with F8B30 (open) or mIgG1 (shaded). NC, negative control. Data are representative of 2 independent experiments. (B and C) Transduced primary NK cells were treated with (+) or without (−) pervanadate (VO₄) for 5 minutes. Cell lysates were immunoprecipitated with anti-KIR2DL5 antibodies. Phospho-tyrosine (4G10), SHP-1, SHP-2, and total KIR2DL5 were detected by immunoblots (B). Quantification of p-Tyr, SHP-1, and SHP-2 association with WT or mutant KIR2DL5 in VO₄-treated NK cells (C). WCL, whole-cell lysates. (D) Representative imaging of cell conjugates acquired upon the indicated transduced primary NK and PVR/Raji cell contact followed by staining with anti-KIR2DL5 mAb and DAPI. Scale bars: […]. (E) Lysis of scramble control or PVR^KO A427 (top) and Jurkat (bottom) by WT or mutant KIR2DL5-transduced primary NK cells at the indicated E/T ratios. Data are mean for duplicate measurements and representative of 3 independent experiments with 3 different donors. In A, and B, data are representative of 3 independent experiments. *P<0.05, **P<0.01, ***P<0.001, ****P<0.0001, by 1-way ANOVA (C), or paired Student's t test (D).
(§2) Coimmunoprecipitation and immunoblotting. NK92 cells or primary NK cells pretreated with or without 1 mM pervanadate (New England BioLabs) were lysed in Pierce immunoprecipitation lysis buffer supplemented with protease and phosphatase inhibitor cocktail (Thermo Fisher Scientific). Proteins from whole-cell lysis were further incubated with anti-KIR2DL5 antibodies and Dynabeads protein G (Thermo Fisher Scientific) for further immunoprecipitation. […]

SHP-1 = SHP-1 (human, UniProt P29350 1-595); assay: as above
Protocol: as §1, §2

[2] = target: T1, PVR expressed on transduced cells …; assay: confocal imaging of conjugates of transduced primary NK cells with PVR-YFP/Raji cells
Protocol: as §1, with “The” for “FIG. 12A-12E: KIR2DL5 ITIM and ITSM mediated NK cell inhibition and suppressed downstream signaling. (A) Tyrosine (Y) in ITIM and ITSM of KIR2DL5 was mutated to phenylalanine (F). The”
NK-Raji conjugation assay. […] Cell mixtures were then loaded onto poly-L-lysine-precoated slides and fixed with 4% formaldehyde at RT for 15 minutes. After blocking with 5% normal goat serum at RT for 1 hour, cells were stained with 20 µg/mL anti-KIR2DL5 antibodies (a mixture of 8 homemade clones) at 4° C. overnight and then with goat anti-mIgG (H+L) Alexa Flour 647 (Invitrogen) at RT for 2 hours. The cells were permeabilized by 0.1% Triton X-100 at RT for 15 minutes and stained with Alexa Flour Plus 405 Phalloidin (Life Technologies) for 1 hour at RT. The slides were then mounted by Gold Antifade Mountant without DAPI (Life Technologies). The mean pixel intensity of synapse and non-synapse was respectively measured and statistically analyzed. Images were acquired by Leica SP8 confocal microscope and processed by ImageJ (NIH).

Sequence of SHP-1 (P29350 whole entry): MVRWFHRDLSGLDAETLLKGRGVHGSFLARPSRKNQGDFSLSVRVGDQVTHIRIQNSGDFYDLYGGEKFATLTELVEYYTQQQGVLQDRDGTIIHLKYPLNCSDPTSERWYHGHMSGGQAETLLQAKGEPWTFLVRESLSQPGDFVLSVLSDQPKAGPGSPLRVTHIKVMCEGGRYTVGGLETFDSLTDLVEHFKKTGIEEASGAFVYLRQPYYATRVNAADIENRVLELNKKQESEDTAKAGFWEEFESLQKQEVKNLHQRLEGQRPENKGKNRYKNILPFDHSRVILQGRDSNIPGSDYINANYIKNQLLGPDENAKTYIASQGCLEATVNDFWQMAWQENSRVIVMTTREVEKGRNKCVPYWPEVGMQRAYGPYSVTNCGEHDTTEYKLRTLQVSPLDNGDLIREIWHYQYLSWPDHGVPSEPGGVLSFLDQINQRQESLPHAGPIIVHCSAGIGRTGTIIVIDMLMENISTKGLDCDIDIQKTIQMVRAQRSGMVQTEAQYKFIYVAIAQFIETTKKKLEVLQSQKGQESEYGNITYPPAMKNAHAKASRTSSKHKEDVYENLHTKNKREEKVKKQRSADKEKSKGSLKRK

Row | binding result [1] | binding result (SHP-2) | binding result (SHP-1) | binding result [2] | Binder
1 | binds |  |  |  | recombinant human DNAM-1-His tag protein (receptor, UniProt Q15762 19-247, looked up, Bought; also called CD226-His; not shown: His tag) EEVLWHTSVPFAENMSLECVYPSMGILTQVEWFKIGTQQDSIAIFSPTHGMVIRKPYAERVYFLNSTMASNNMTLFFRNASEDDVGYYSCSLYTYPQGTWQKVIQVVQSDSFEAAVPSNSHIVSEPGKNVTLTCQPQMTWPVQAVRWEKIQPRQIDLLTYCNLVHGRNFTSKFPRQIVSNCSHGRWSVIVIPDVTVSDSGLYRCYLQASAGENETFVMRLTVAEGKTDN
2 |  | no binding | no binding | binds | Y298F/Y328F (receptor, also called KIR2DL5 Y298F/Y328F (ITIM and ITSM mutant) on transduced primary NK cells) receptor chain: HEGGQDKPLLSAWPSAVVPRGGHVTLLCRSRLGFTIFSLYKEDGVPVPELYNKIFWKSILMGPVTPAHAGTYRCRGSHPRSPIEWSAPSNPLVIVVTGLFGKPSLSAQPGPTVRTGENVTLSCSSRSSFDMYHLSREGRAHEPRLPAVPSVNGTFQADFPLGPATHGGTYTCFGSLHDSPYEWSDPSDPLLVSVTGNSSSSSSSPTEPSSKTGIRRHLHILIGTSVAIILFIILFFFLLHCCCSNKKNAAVMDQEPAGDRTVNREDSDDQDPQEVTFAQLDHCVFTQTKITSPSQRPKTPPTDTTMFMELPNAKPRSLSPAHKHHSQALRGSSRETTALSQNRVASSHVPAAGI
